Experimental data taken from publication PMC6050342, “Molecular identification and characterization of rhodaneses from the insect herbivore Pieris rapae” (Scientific Reports, 2018).

Substrate: O=S(O)(O)=S
Experiment: purified protein
Type: biochemical, Pieris rapae
Details: 50 mM KCN, Tris-HCl pH 8.5, 30 °C

B1: PrTST2 (Pieris rapae) (protein)
chain: MGNSNSNSTMVDPVRFVSYEDMLKVIHEPEKVIIDVRNPDEIESTGKIPSSINIPLNTVSDTLASMPDDEFLKQYQRPKPSASDELIFYCKSGRRSQEALDKALKLGFSNSKSYLGSWEDWSSKQK
notes: active-site Cys-90
B1 showed a Km of 840 ± 270 µM and a Vmax of 14.2 µmol/min/mg.
